B1: Stage VI sporulation protein D (Bacillus subtilis), P37963 (parent)
chain: MPQNHRLQFSVEESICFQKGQEVSELLSISLDPDIRVQEVNDYVSIIGSLELTGEYNIDQNKHTEEIYTDKRFVEQVRKREDGSAELTHCFPVDITIPKNKVSHLQDVFVFIDAFDYQLTDSRILTIQADLAIEGLLDDTQDKEPEIPLYEAPAAFREEELSEPPAHSVVEEPGASSAEEAVLQHEPPAEPPELFISKAGLREELETEKAESEPPESVASEPEAREDVKEEEESEELAVPETEVRAESETEESEPEPDPSEIEIQEIVKAKKETAEPAAAIADVREEADSPAETELREHVGAEESPALEAELHSETVIAKEKEETTVSPNHEYALRQEAQNEEAAQSDQADPALCQEEAEPDEALESVSEAALSIEDSRETASAVYMENDNADLHFHFNQKTSSEEASQEELPEPAYRTFLPEQEEEDSFYSAPKLLEEEEQEEESFEIEVRKTPSAEEPKEETPFQSFQLPESSETERKETDAVPRVAPAAETKEPQTKESDNSLYLTKLFTKEADEFSRMKICIVQQEDTIERLCERYEITSQQLIRMNSLALDDELKAGQILYIPQYKNSHA
partner: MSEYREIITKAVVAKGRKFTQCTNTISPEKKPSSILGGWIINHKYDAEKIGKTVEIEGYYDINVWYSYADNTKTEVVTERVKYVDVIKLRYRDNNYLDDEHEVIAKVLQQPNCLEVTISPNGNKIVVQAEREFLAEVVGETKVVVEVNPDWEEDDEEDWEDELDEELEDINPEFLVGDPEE

Variants of: B1
Conditions: with cote_bacsu cotE

Variant	effect of a mutation on the interaction
MPQNHRLQFSVEESICFQKGQEVSELLSISLDPDIRVQEVNDYVSIIGSLELTGEYNIDQNKHTEEIYTDKRFVEQVRKREDGSAELTHCFPVDITIPKNKVSHLQDVFVFIDAFDYQLTDSRILTIQADAAIEGLLDDTQDKEPEIPLYEAPAAFREEELSEPPAHSVVEEPGASSAEEAVLQHEPPAEPPELFISKAGLREELETEKAESEPPESVASEPEAREDVKEEEESEELAVPETEVRAESETEESEPEPDPSEIEIQEIVKAKKETAEPAAAIADVREEADSPAETELREHVGAEESPALEAELHSETVIAKEKEETTVSPNHEYALRQEAQNEEAAQSDQADPALCQEEAEPDEALESVSEAALSIEDSRETASAVYMENDNADLHFHFNQKTSSEEASQEELPEPAYRTFLPEQEEEDSFYSAPKLLEEEEQEEESFEIEVRKTPSAEEPKEETPFQSFQLPESSETERKETDAVPRVAPAAETKEPQTKESDNSLYLTKLFTKEADEFSRMKICIVQQEDTIERLCERYEITSQQLIRMNSLALDDELKAGQILYIPQYKNSHA [L131A]	disrupting interaction

Variants of: B1
Conditions: with cote_bacsu cotE
Remark: another data set of the same source

Variant	effect of a mutation on the interaction
MPQNHRLQFSVEESICFQKGQEVSELLSISLDPDIRVQEVNDYVSIIGSLELTGEYNIDQNKHTEEIYTDKRFVEQVRKREDGSAELTHCFPVDITIPKNKVSHLQDVFVFIDAFDYQLTDSRILTIQADAAIEGLLDDTQDKEPEIPLYEAPAAFREEELSEPPAHSVVEEPGASSAEEAVLQHEPPAEPPELFISKAGLREELETEKAESEPPESVASEPEAREDVKEEEESEELAVPETEVRAESETEESEPEPDPSEIEIQEIVKAKKETAEPAAAIADVREEADSPAETELREHVGAEESPALEAELHSETVIAKEKEETTVSPNHEYALRQEAQNEEAAQSDQADPALCQEEAEPDEALESVSEAALSIEDSRETASAVYMENDNADLHFHFNQKTSSEEASQEELPEPAYRTFLPEQEEEDSFYSAPKLLEEEEQEEESFEIEVRKTPSAEEPKEETPFQSFQLPESSETERKETDAVPRVAPAAETKEPQTKESDNSLYLTKLFTKEADEFSRMKICIVQQEDTIERLCERYEITSQQLIRMNSLALDDELKAGQILYIPQYKNSHA [L131A]	decreasing interaction strength
MPQNHRLQFSVEESICFQKGQEVSELLSISLDPDIRVQEVNDYVSIIGSLELTGEYNIDQNKHTEEIYTDKRFVEQVRKREDGSAELTHCFPVDITIPKNKVSHLQDVFVFIDAFDYQLTDSRILTAQADLAIEGLLDDTQDKEPEIPLYEAPAAFREEELSEPPAHSVVEEPGASSAEEAVLQHEPPAEPPELFISKAGLREELETEKAESEPPESVASEPEAREDVKEEEESEELAVPETEVRAESETEESEPEPDPSEIEIQEIVKAKKETAEPAAAIADVREEADSPAETELREHVGAEESPALEAELHSETVIAKEKEETTVSPNHEYALRQEAQNEEAAQSDQADPALCQEEAEPDEALESVSEAALSIEDSRETASAVYMENDNADLHFHFNQKTSSEEASQEELPEPAYRTFLPEQEEEDSFYSAPKLLEEEEQEEESFEIEVRKTPSAEEPKEETPFQSFQLPESSETERKETDAVPRVAPAAETKEPQTKESDNSLYLTKLFTKEADEFSRMKICIVQQEDTIERLCERYEITSQQLIRMNSLALDDELKAGQILYIPQYKNSHA [I127A]	decreasing interaction strength

Reference: IntAct's records for PubMed 22773792
